Columns and labels:
GST-Smad2/MH1 [1] = molecular target: T1, GST-Smad2/MH1 (Homo sapiens, UniProt Q15796 Q15796:1-242); experiment: EMSA; data not shown; conditions: tags: GST N-terminal (pGEX2TK, Pharmacia); label: 32P
Method: To evaluate whether the analogous domain of human Smad proteins could bind DNA, GST fusion proteins containing the MH1 domains of Smads 2, 3, and 4 were constructed and expressed in $E. coli$. Electrophoresis mobility shift assays (EMSA) were performed using the purified proteins and labeled oligonucleotides containing the optimal sequence from Vg, essentially as described by Kim et al ). […] However, the binding was relatively inefficient, typically resulting in shifts of less than 5% of the input Vg probe. Several experimental manipulations were employed to increase the efficiency of binding (such as variations of cation, salt concentration, competitor, and other components of the binding buffer) without success.
DNA-binding assays were performed essentially as described except that poly (dI-dC), 6 ug/ml, was used as the only competitor and 2% NP-40 was included in the reaction mix. For binding to PCR products derived from clones (e.g., FIG. 1), 1.0–0.5 ug protein […] and 50 ng of DNA end-labeled to 2×10^6 dpm/ug, was used. For binding to oligonucleotides, 0.3–0.5 ug of protein (~0.4 uM final concentration) and 0.5 ng of DNA end-labeled to 2×10^8 dpm/ug, was used. […] Quantitation of binding was performed using an Instant Imager (Packard).

GST-Smad2/MH1 [2] = molecular target: T1, GST-Smad2/MH1; experiment: EMSA; did not bind the palindrome (data not shown); exact probe not stated; conditions: tags: GST N-terminal (pGEX2TK, Pharmacia); label: 32P
Smad4 (non-fusion) = Smad4 (non-fusion) (Homo sapiens, UniProt Q13485 Q13485:1-552); experiment: EMSA; data not shown; conditions: tags: none; rabbit reticulocyte lysate; label: 32P
His6-Smad4 full length = His6-Smad4 full length (Homo sapiens, UniProt Q13485 Q13485:1-552); experiment: EMSA; full-length Smad4; conditions: tags: His6 (pET33b, Novagen); label: 32P
Method: (§1) (FIG. 2B) The ^32P-labeled SBE probe was incubated with 0.6 ug of a fusion protein containing either the MH1 domain of Smad4 (lane 1) or 0.4–1.6 ug of a fusion protein containing FL Smad4 (lanes 2–5).
(§2) DNA-binding assays were performed essentially as described except that poly (dI-dC), 6 ug/ml, was used as the only competitor and 2% NP-40 was included in the reaction mix. For binding to PCR products derived from clones (e.g., FIG. 1), 1.0–0.5 ug protein […] and 50 ng of DNA end-labeled to 2×10^6 dpm/ug, was used. For binding to oligonucleotides, 0.3–0.5 ug of protein (~0.4 uM final concentration) and 0.5 ng of DNA end-labeled to 2×10^8 dpm/ug, was used. Specificity of binding was checked by competition with unlabeled SBE oligonucleotides and lack of competition with irrelevant oligonucleotides. Quantitation of binding was performed using an Instant Imager (Packard).

GST-Smad4/FL = GST-Smad4/FL (Homo sapiens, UniProt Q13485 Q13485:1-552); experiment: EMSA; full-length Smad4; conditions: tags: GST N-terminal (pGEX2TK, Pharmacia); label: 32P
Method: as §1, §2

GST-Smad3/MH1 = GST-Smad3/MH1 (Homo sapiens, UniProt P84022 P84022:1-200); experiment: EMSA; bound to same extent as longer selected-clone probes; poly(dI-dC), 2% NP-40; conditions: tags: GST N-terminal (pGEX2TK, Pharmacia); label: 32P
Method: as §1, §2

GST-Smad4/MH1 = GST-Smad4/MH1 (Homo sapiens, UniProt Q13485 Q13485:1-276); experiment: as above; conditions: tags: GST N-terminal (pGEX2TK, Pharmacia); label: 32P
Method: as §1, §2

T1 sequence (Q15796 1-242, one chain of several): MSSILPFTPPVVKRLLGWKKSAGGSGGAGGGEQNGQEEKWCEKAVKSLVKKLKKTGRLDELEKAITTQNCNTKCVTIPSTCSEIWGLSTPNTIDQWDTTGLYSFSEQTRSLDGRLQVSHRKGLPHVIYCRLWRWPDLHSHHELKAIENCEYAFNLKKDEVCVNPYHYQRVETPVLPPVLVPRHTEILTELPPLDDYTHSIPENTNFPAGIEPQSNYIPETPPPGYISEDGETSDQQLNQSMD
Chain of GST-Smad4/MH1 (Q13485 1-276, one chain of several): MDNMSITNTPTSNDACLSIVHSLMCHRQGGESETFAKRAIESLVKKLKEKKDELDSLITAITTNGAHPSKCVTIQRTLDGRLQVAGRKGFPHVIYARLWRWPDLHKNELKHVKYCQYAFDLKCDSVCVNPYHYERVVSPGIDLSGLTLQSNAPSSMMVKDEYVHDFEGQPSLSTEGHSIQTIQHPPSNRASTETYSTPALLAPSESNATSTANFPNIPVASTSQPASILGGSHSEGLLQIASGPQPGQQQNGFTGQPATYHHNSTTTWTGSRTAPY
Chain of GST-Smad3/MH1 (P84022 1-200, one chain of several): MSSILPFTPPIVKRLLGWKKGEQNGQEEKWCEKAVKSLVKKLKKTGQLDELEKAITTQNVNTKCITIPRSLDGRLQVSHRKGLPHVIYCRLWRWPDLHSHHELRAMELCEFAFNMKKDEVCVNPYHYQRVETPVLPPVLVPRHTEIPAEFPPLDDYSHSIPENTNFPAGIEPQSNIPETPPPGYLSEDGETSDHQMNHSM
Chain of GST-Smad4/FL (Q13485 whole entry, one chain of several): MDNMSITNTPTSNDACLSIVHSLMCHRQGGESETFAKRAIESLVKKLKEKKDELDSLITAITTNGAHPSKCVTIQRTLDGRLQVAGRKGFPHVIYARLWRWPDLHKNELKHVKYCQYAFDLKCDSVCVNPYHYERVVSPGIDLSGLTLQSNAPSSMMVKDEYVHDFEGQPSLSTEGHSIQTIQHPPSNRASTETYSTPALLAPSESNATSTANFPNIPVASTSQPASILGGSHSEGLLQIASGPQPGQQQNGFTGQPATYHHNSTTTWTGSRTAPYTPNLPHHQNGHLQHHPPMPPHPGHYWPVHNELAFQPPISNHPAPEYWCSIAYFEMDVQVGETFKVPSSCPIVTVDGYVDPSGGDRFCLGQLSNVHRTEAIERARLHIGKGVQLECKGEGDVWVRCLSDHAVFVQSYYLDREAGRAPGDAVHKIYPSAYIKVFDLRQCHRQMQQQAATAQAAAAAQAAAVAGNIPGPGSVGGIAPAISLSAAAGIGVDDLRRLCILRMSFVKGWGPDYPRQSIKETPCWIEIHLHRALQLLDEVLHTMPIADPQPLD
Chain of Smad4 (non-fusion) (Q13485 whole entry, the tested form may be a part, one chain of several): as the sequence (Q13485 whole entry, one chain of several) above
Chain of His6-Smad4 full length (Q13485 whole entry, the tested form may be a part, one chain of several): as the sequence (Q13485 whole entry, one chain of several) above

Row | Binder | binding result (GST-Smad2/MH1 [1]) | binding result (GST-Smad2/MH1 [2]) | binding result (Smad4 (non-fusion)) | binding result (His6-Smad4 full length) | binding result (GST-Smad4/FL) | binding result (GST-Smad3/MH1) | binding result (GST-Smad4/MH1)
1 | Vg probe (dsDNA) DNA 1: TTTGTGCTTGGCTGCCGTCGCGATTCGACAACTTTGG DNA 2: CCAAAGTTGTCGAATCGCGACGGCAGCCAAGCACAAA | no binding | – | – | – | – | – | –
2 | SBE probe (26 bp) (dsDNA) DNA 1: GGAGTATGTCTAGACTGACAATGTAC DNA 2: GTACATTGTCAGTCTAGACATACTCC | – | no binding | binds | binds | binds | binds | binds

— patent publication US6100032, “Human Smad3 and Smad4 are sequence-specific transcription activators” (Johns Hopkins University)
